Laboratory results published in US20190002500A1, “NOVEL a4B7 PEPTIDE DIMER ANTAGONISTS” (Protagonist Therapeutics, Inc., priority 2013, published 2019).
Where a SMILES comes first, the peptide text is derived from it. Bridges are numbered along the chain shown (N, C = ends). Where no end group is shown, it is not given here. [ ]: non-standard residue; d: D form. NMeR = CN[C@@H](CCCNC(=N)N)C(=O)O; Pen = CC(C)(S)[C@H](N)C(=O)O

What was measured:
[1] = Simulated Intestinal Fluid (SIF) Stability Assay; assay type: in vitro ADME; conditions: for stability in simulated intestinal fluids (SIF): substitution of Cys with Pen, compared to SEQ ID NO: 46 with Cys
Procedure: Simulated Intestinal Fluid (SIF) Stability Assay
Studies were carried out in simulated intestinal fluid (SIF) to evaluate gastric stability of the dimer molecules of the instant invention. SIF was prepared by adding 6.8 g of monobasic potassium phosphate and 10.0 g of pancreatin to 1.0 L of water. After dissolution, the pH was adjusted to 6.8 using NaOH. DMSO stocks (2 mM) were first prepared for the test compounds. Aliquots of the DMSO solutions were dosed into 6 individual tubes, each containing 0.5 mL of SIF, which had been pre-warmed to 37° C.
The final test compound concentration was 20 μM. The vials were kept in a benchtop Thermomixer® for the duration of the experiment. At each timepoint (0, 5, 10, 20, 40, and 60 minutes), 1.0 mL of acetonitrile containing 1% formic acid was added to one vial to terminate the reaction. Samples were stored at 4° C. until the end of the experiment. After the final timepoint was sampled, the tubes were mixed and then centrifuged at 3,000 rpm for 10 minutes. Aliquots of the supernatant were removed, diluted 1:1 into distilled water containing internal standard, and analyzed by LCMS/MS. Percent remaining at each timepoint was calculated based on the peak area response ratio of test to compound to internal standard. Time 0 was set to 100%, and all later timepoints were calculated relative to time 0. Half-lives were calculated by fitting to a first-order exponential decay equation using Graphpad. A small sampling of the results of these studies is provided and discussed in connection FIG. 3, above.

[2] = FIG. 3
Text: Table printed on a drawing sheet, FIG. 3
First reader's note: The sequence is split into one residue per column (positions 4-11 plus one unnumbered column), and SEQ ID 39 is printed twice.

Row | Compound | stability in simulated intestinal fluids (SIF) [1] | SIF Stability (Half-Life, Min) [2] [min] | also measured
1 | SEQ ID NO: 46: integrin antagonist homodimer of monomer subunit SEQ ID NO: 46 (Cys, N-terminally dimerized); N(alpha)Methylated and non-methylated variations (CRSDTLC; disulfide 1-7; not fully specified (residue 2); also: homodimer linked at N-termini) [listing 1 of 2 here] |  |  | half-life in SIF ([1]; substitution of arginine with N-Me-Arg, N(alpha)Methylated vs non-methylated variation): increased half-life substantially
2 | SEQ ID NO: 74: integrin antagonist homodimer of monomer subunit SEQ ID NO: 74, Cys substituted with Penicillamine (Pen) (C[NMeR]SDTL[Pen]E[dK]; disulfide 1-7; also: homodimer, link not given here) | increased stability significantly |  | 
3 | SEQ ID NO: 55: integrin antagonist homodimer of monomer subunit SEQ ID NO: 55, Cys substituted with Penicillamine (Pen) (C[NMeR]SDTL[Pen][dK]; disulfide 1-7; also: homodimer, link not given here) | increased stability significantly |  | 
4 | CC(=O)N[C@H]1CSSC[C@@H](C(N)=O)NC(=O)[C@H](CC(C)C)NC(=O)[C@H]([C@@H](C)O)NC(=O)[C@H](CC(=O)O)NC(=O)[C@H](CO)NC(=O)[C@H](CCCNC(=N)N)NC1=O [compound 39, Ac-C R S D T L C-NH2] (Ac-CRSDTLC-NH2; disulfide 1-7) |  | <1 | 
5 | SEQ ID NO: 46: integrin antagonist homodimer of monomer subunit SEQ ID NO: 46 (Cys, N-terminally dimerized); N(alpha)Methylated and non-methylated variations (CRSDTLC; disulfide 1-7; not fully specified (residue 2); also: homodimer linked at N-termini) [listing 2 of 2 here] |  | 73 | 
